Values joined by “and” are separate entries in the source; they are usually repeats but may differ in a detail not shown here. Identical values can stand only once.
B1: CMG2 on CHO CMG2-C4 cells (receptor)
chain: not shown
B2: TEM8 on CHO TEM8-T4 cells (receptor)
chain: not shown

Target: PA-U7 (Bacillus anthracis, UniProt P13423 30-764)

Row | Binder | Kd
1 | B1 | 8 nM and 12 nM
2 | B2 | 25 nM and 35 nM

From US20180250376A1 (US Dept. of Health and Human Services, published 2018)
